This passage reports Km and kcat results from publication doi:10.1101/457440v1.

Substrate in data set [1]: O=C(/C=C/c1ccc(O)cc1)c1c(O)cc(O)cc1O
Put plainly: purified protein.

Substrate in data set [2]: O=C(/C=C/c1ccc(O)cc1)c1ccc(O)cc1O
Briefly: purified protein.

Substrate in data set [3]: O=C(/C=C/c1ccc(O)cc1)c1ccc(O)cc1O
Briefly: Michaelis-Menten kinetics of cyclization. The class given is biochemical, Medicago sativa.

Numbering of substitutions follows the chain as printed. Names and notes keep the numbering of the source.

B1: AtCHI-1 (Arabidopsis thaliana) (protein)
chain: MSSSNACASPSPFPAVTKLHVDSVTFVPSVKSPASSNPLFLGGAGVRGLDIQGKFVIFTVIGVYLEGNAVPSLSVKWKGKTTEELTESIPFFREIVTGAFEKFIKVTMKLPLTGQQYSEKVTENCVAIWKQLGLYTDCEAKAVEKFLEIFKEETFPPGSSILFALSPTGSLTVAFSKDDSIPETGIAVIENKLLAEAVLESIIGKNGVSPGTRLSVAERLSQLMMKNKDEKEVSDHSVEEKLAKEN
By Km is commonly meant the concentration of substrate that gives half-maximal velocity. In general, kcat refers to the maximal rate divided by the concentration of active sites. For the protein B1, the values for the Km in the data set “purified protein [1]” and in the data set “purified protein [2]” were 62 ± 9 µM and 16.8 ± 3.5 µM, respectively. For the same protein, the results for the catalytic constant (kcat) in “purified protein [1]” and in “purified protein [2]” were 379 ± 35 min⁻¹ and 0.064 ± 0.005 min⁻¹, respectively.

B2: AtCHI-1 (Arabidopsis thaliana; V106G) (protein)
chain: B1 chain with V106G
Take B2: in the data set “purified protein [1]”, the Km came out at 19.0 ± 0.5 µM and the turnover number (kcat) was 332 ± 34 min⁻¹.

B3: MsCHI-2 (Medicago sativa; G95V) (protein)
chain: MAASITAITVENLEYPAVVTSPVTGKSYFLGGAGERGLTIEGNFIKFTAIGVYLEDIAVASLAAKWKGKSSEELLETLDFYRDIISGPFEKLIRVSKIRELSGPEYSRKVMENCVAHLKSVGTYGDAEAEAMQKFAEAFKPVNFPPGASVFYRQSPDGILGLSFSPDTSIPEKEAALIENKAVSSAVLETMIGEHAVSPDLKRCLAARLPALLNEGAFKIGN
Consider B3, for which, in the data set “purified protein [1]”, the Km was 5.3 ± 2.6 µM and the turnover number (kcat) is 512 ± 26 min⁻¹. In addition, in “purified protein [2]”, the Michaelis-Menten constant (Km) worked out at 65 ± 10 µM and the kcat was 2.16 ± 0.02 min⁻¹.

B4: MsCHI-2 (Medicago sativa) (protein)
chain: B3 chain with V95G
For B4, in the data set “purified protein [1]”, the Km was 112 ± 28 µM and the kcat was 11,180 ± 1,380 min-1. In addition, in the data set “purified protein [2]”, the Km came to 8.4 ± 2.0 µM and the catalytic constant (kcat) is given as 2,250 ± 165 min-1.

B5: MsCHI-2 (Medicago sativa; K97M) (protein)
chain: B3 chain with V95G, K97M
For the protein B5, the Km in the data set “purified protein [1]” turned out to be 14.5 ± 4.2 µM; in the data set “purified protein [2]”, 25.7 ± 2.1 µM. Also, the catalytic constant (kcat) was 1,300 ± 154 min-1 in the data set “purified protein [1]” and 658 ± 11 min⁻¹ in the data set “purified protein [2]”.

B6: MsCHI-2 (Medicago sativa; G95T) (protein)
chain: B3 chain with V95T
In the case of B6, in data set [3], the Michaelis-Menten constant (Km) was determined as 117 ± 12 µM and the kcat worked out at 0.388 ± 0.0283 s⁻¹.

B7: MsCHI-2 (Medicago sativa; R36K) (protein)
chain: B3 chain with R36K, V95G
On to B7, for which, in the data set “purified protein [1]”, the Michaelis-Menten constant (Km) came to 98.3 ± 1.5 µM and the turnover number (kcat) amounted to 25.4 ± 1.1 min⁻¹.
